Reference: publication PMC6565636, “Rif1 promotes association of G-quadruplex (G4) by its specific G4 binding and oligomerization activities”

Assays:
[1] = target: T1, Rif1 full-length (His6-Rif1-FLAG3) (Schizosaccharomyces pombe (fission …, UniProt Q96UP3 1-1400)); assay: EMSA; KCl; EMSA with oligos heat-denatured and renatured in 50 mM KCl/40% PEG200 (Fig 5: 50 mM Tris-HCl pH 7.5 with KCl, NaCl or none); gel shift buffer 40 mM Hepes-KOH pH 7.6, 50 mM KCl, 1 mM EDTA, 10% glycerol, 0.01% Triton X-100; pull-down 30 min at room temperature; +++/++/+ = >50/>16/>6% shift at 1 nM Rif1; settings: protein: recombinant, tags: N-term His6, C-term FLAG3, label: 32P
T1 sequence: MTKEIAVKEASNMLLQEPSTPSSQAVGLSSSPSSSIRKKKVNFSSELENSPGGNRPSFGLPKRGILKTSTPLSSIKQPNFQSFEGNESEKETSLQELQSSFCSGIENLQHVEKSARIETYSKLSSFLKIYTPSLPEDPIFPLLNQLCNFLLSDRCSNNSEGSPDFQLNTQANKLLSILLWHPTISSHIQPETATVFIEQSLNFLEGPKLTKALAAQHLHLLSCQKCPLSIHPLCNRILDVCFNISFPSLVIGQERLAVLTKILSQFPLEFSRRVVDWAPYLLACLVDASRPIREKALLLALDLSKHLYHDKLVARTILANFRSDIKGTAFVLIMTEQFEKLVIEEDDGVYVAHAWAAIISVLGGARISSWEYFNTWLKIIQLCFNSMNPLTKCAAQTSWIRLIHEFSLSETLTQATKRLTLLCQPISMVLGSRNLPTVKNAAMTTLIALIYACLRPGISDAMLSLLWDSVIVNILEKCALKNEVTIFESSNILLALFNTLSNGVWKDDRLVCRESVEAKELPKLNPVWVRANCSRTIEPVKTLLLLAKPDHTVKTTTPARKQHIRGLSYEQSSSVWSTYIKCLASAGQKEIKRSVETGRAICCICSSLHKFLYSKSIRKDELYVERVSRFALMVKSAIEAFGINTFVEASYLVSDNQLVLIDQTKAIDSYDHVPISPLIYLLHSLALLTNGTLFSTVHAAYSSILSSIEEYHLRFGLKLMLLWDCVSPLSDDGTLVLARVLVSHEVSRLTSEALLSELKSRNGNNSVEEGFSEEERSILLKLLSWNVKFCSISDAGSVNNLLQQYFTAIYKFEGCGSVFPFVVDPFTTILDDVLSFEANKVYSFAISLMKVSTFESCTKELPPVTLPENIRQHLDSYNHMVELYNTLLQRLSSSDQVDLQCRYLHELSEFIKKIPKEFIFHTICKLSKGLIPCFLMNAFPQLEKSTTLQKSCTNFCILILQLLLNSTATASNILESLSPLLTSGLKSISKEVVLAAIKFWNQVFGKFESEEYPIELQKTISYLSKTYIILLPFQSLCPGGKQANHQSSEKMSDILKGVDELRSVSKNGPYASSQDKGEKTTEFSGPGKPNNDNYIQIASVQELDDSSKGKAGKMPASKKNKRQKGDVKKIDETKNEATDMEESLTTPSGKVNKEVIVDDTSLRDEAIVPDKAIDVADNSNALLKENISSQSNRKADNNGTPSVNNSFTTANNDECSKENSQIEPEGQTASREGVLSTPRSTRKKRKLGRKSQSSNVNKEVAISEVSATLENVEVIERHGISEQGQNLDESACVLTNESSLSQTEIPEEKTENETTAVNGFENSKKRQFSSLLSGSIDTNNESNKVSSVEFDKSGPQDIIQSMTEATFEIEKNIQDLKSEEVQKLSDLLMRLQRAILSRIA

[2] = target: T1, Rif1 full-length (His6-Rif1-FLAG3); assay: EMSA; as efficient as or slightly better than AGTGn; EMSA with oligos heat-denatured and renatured in 50 mM KCl/40% PEG200 (Fig 5: 50 mM Tris-HCl pH 7.5 with KCl, NaCl or none); gel shift buffer 40 mM Hepes-KOH pH 7.6, 50 mM KCl, 1 mM EDTA, 10% glycerol, 0.01% Triton X-100; pull-down 30 min at room temperature; +++/++/+ = >50/>16/>6% shift at 1 nM Rif1; settings: protein: recombinant, tags: N-term His6, C-term FLAG3, label: 32P
[3] = target: T1, Rif1 full-length (His6-Rif1-FLAG3); assay: EMSA; KCl; three repeats most efficient; EMSA with oligos heat-denatured and renatured in 50 mM KCl/40% PEG200 (Fig 5: 50 mM Tris-HCl pH 7.5 with KCl, NaCl or none); gel shift buffer 40 mM Hepes-KOH pH 7.6, 50 mM KCl, 1 mM EDTA, 10% glycerol, 0.01% Triton X-100; pull-down 30 min at room temperature; +++/++/+ = >50/>16/>6% shift at 1 nM Rif1; settings: protein: recombinant; tags: N-term His6, C-term FLAG3; label: 32P

TTGGGGTGGGTGGGTGGGT (structured_DNA) [T95_2T_G]
binding result ([1]; parallel G4): no binding

ACAGGGGG (structured_DNA)
binding result ([2]; slow-migrating multimers): binds

TAGGGGGGTTAGGGTTAGGG (structured_DNA) [Htelo1_no_spacer]
binding result ([1]; parallel G4): binds

ACAGGGGACAGGGGACAGGGG (structured_DNA) [(ACAGGGG)3]
binding result [2]: binds

TTGGGTTAGGGTTAGGGTTAGGGA (structured_DNA) [HT]
binding result ([1]; hybrid G4): no binding

AGGGCTAGGGCTACTAGGGGGG (structured_DNA) [Htelo4(GGGGGG)_3nt_spacer]
binding result ([1]; hybrid G4 in KCl, antiparallel in NaCl): binds

TTGGGGGTGGGTGGGTGGGT (structured_DNA) [T95_2T_GG]
binding result ([1]; parallel G4): no binding

AGGGAGGGAGGGAGGGTGG (structured_DNA) [CEB1_A]
binding result ([1]; parallel G4): binds

AGTGGGAGTGGGAGTGGG (structured_DNA) [(AGTGGG)3]
binding result [3]: binds

AGTGGGGGAGTGGGGGAGTGGGGGAGTGGGGG (structured_DNA) [(AGTGGGGG)4]
binding result [1]: binds

AGGGCTAGGGCTAGGGCTAGGG (structured_DNA) [Htelo4]
binding result ([1]; antiparallel G4 (chair)): no binding

GGGGTGGGAGGAGGGT (structured_DNA) [93del]
binding result ([1]; parallel G4 (dimeric)): binds

AGGGCTAGGGCTAGGGGGG (structured_DNA) [Htelo4(GGGGGG)]
binding result ([1]; hybrid G4): binds

TTTTTTGAGAGAGAGAGAGAGAGAGAGAGA (ssDNA) [T6(GA)12]
binding result ([1]; no G4): no binding

ACAGGGG (structured_DNA)
binding result [2]: binds

AGTGGGAGTGGGAGTGGGAGTGGG (structured_DNA) [(AGTGGG)4]
binding result [1]: binds

B1: Rif1-8 (70 nt) (structured_DNA)
DNA: GTGGGGGATGTGGGATAGACTATTTTAGACTTGAGACTGTGTATTCACTTAAAAGTGCTATGTGGGGGCA
binding result ([1]; parallel G4): binds

AGGGTAGGGAGGGAGGGTGG (structured_DNA) [CEB1_TA]
binding result ([1]; parallel G4 in KCl): binds

TGAGGGTGGTGAGGGTGGGGA (structured_DNA) [Pu24T]
binding result ([1]; parallel G4): binds

TAGGGAGGGTTAGGGTTAGGG (structured_DNA) [Htelo1_A]
binding result ([1]; hybrid or mix G4): no binding

AGGGCTAGGGCTACTAGGGCTAGGG (structured_DNA) [Htelo4_3nt_spacer]
binding result ([1]; antiparallel G4): no binding

TAGGGTTAGGGTTAGGGGGG (structured_DNA) [Htelo1_no_spacer_2]
binding result ([1]; mix G4 in KCl, antiparallel in NaCl): binds

AGGGGGGAGGGAGGGT (structured_DNA) [CEB1_deltaGG]
binding result ([1]; parallel G4): binds

AGGGGGGAGGGAGGGTGG (structured_DNA) [CEB1]
binding result ([1]; parallel G4 (dimeric)): binds

AGTGGGGGAGTGGGGG (structured_DNA) [(AGTGGGGG)2]
binding result [1]: binds

GGGTTAGGGTTAGGGTTAGGGT (structured_DNA) [Htelo3]
binding result ([1]; hybrid G4 in K+ (CD)): no binding

AGTGGGGGAGTGGGGGAGTGGGGG (structured_DNA) [(AGTGGGGG)3]
binding result [3]: binds

B2: DX1 (dsDNA)
DNA 1: CGCGAATTCGCG
DNA 2: CGCGAATTCGCG
binding result ([1]; blunt, self-complementary): no binding

ACAGGGGGACAGGGGGACAGGGGG (structured_DNA) [(ACAGGGGG)3]
binding result [2]: binds

AGTGGGGAGTGGGGAGTGGGGAGTGGGG (structured_DNA) [(AGTGGGG)4]
binding result [1]: binds

AGGGTTAGGGAGGGAGGGTGG (structured_DNA) [CEB1_TTA]
binding result ([1]; parallel G4 in KCl): binds

AGTGGGAGTGGG (structured_DNA) [(AGTGGG)2]
binding result [1]: binds

AGTGGGGAGTGGGGAGTGGGG (structured_DNA) [(AGTGGGG)3]
binding result [3]: binds

AGTGGG (ssDNA)
binding result [1]: no binding

ATCTGAGAATCAGAT (structured_DNA) [DX2]
binding result ([1]; hairpin): no binding

AGTGGGGAGTGGGG (structured_DNA) [(AGTGGGG)2]
binding result [1]: binds
